Results as given in US6548066B1, “Immunogenic compositions to the CCK-B/gastrin receptor and methods for the treatment of tumors” (Aphton Corporation, priority 1997, dated 2003).

What was measured:
MC26 mouse colon tumor = conditions: treated animals; 25 days in the control animals; cited from earlier work
[1] = molecular target: T1, CCK-B/gastrin-receptor on AR42J cells (Rattus norvegicus, UniProt P30553); assay: Radioligand (125I-hG17) binding inhibition on AR42J cells
T1 construct: host or cells: AR42J rat pancreatic adenocarcinoma cells
T1 sequence (P30553 1-452): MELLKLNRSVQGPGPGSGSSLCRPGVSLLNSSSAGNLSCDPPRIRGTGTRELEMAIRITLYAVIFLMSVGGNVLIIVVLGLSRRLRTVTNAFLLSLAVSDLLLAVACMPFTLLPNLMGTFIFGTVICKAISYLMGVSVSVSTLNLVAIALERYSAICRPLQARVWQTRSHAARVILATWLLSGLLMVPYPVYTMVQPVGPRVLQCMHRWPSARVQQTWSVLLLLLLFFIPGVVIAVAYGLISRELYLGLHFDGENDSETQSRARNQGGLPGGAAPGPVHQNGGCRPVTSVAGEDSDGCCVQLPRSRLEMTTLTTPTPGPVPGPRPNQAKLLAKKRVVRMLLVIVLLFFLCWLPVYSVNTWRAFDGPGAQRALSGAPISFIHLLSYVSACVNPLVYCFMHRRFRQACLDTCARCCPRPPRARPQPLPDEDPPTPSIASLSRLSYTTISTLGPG
Method: AR42J tumor cells (European Collection of Animal Cell cultures, Porton Down, UK) are derived from a rat pancreatic adenocarcinoma and are known to have well characterized CCK-B/gastrin-receptors. Thus AR42J were tested to confirm the expression of CCK-B/gastrin-receptor and specificity of the receptor for hH17 by radioligand inhibition. AR42J cells were cultured at 37° C. with 7% CO2 in complete RPMI 1640 (Sigma) supplemented with 10% FCS (Gemini Bioproducts), 2 mM glutamine (JRH Biosciences), 1 mM sodium pyruvate (JRH B.) and 50 μg/ml gentamicin (Gemini Bioproducts). The cells were harvested from 175 cm^2 T-flasks (Falcon Plastics) with PBS containing 0.25% EDTA, then washed twice with PBS (no EDTA) by centrifugation (400×g for 10 min). The cells were kept at 0-4° C. for all manipulations. A single cell suspension was prepared in buffer, and the cell concentration was adjusted to 10^6 cells/ml. Aliquots of 1 ml of cell suspension were added to 12×75 mm culture tubes, then the cells were centrifuged and the supernatants discarded. The cells were resuspended in PBS (0.1 ml/tube) containing human G17 (hG17), gonadotropin releasing hormone (GnRH), or no peptide. The peptide concentrations were 1.0 ng/ml, 100 ng/ml and 10 μg/ml. An aliquot of 0.1 ml of ^125I-hG17 (NEN), containing approximately 26,300 CPM (specific activity, 2200 Ci/mmol), was added to each tube. The tubes were vortexed, then incubated for 15 minutes. The cells were washed twice with PBS, then counted in a γ counter (Wallac). Samples were run in duplicate. Background counts were subtracted, then the % inhibition of ^125I-hG17 binding by each inhibitor was calculated using the equation: % Inhibition=(100)(1−((CPMuninhibited−CPMinhibited)/CPMuninhibited).

[2] = molecular target: T2, gastrin-receptor expressed by AR42J cells (Rattus norvegicus, UniProt P30553); assay: Immunofluorescence binding of antibodies to AR42J cells; conditions: peptide inhibitor 1.0 mg/ml; antibody 100 μg/ml
T2 construct: host or cells: AR42J rat pancreatic adenocarcinoma cells
T2 sequence (P30553 1-452): T1 sequence (P30553 1-452)
Method: Binding of the GRP1-Ser specific antibodies to AR42J cells was assessed by immunofluorescence. AR42J cells were grown as in the previous Examples and harvested with cell scrapers from 175 cm^2 T-flasks and washed twice with buffer (PBS with 0.02% NaN3) by centrinugation (400×g for 7 min). The cells were kept at 0-4° C. for all manipulations. A single cell suspension was prepared in buffer, and the cell concentration was adjusted to 10^6 cells/ml. The cell suspension was added to 1.5 ml microfuge tubes (1 ml/tube). The cells were pelleted by centrifugation and supernatants were aspirated. The cells were resuspended in buffer (0.1 ml/tube) containing peptide inhibitors (1.0 mg/ml). The inhibitors included GRP1-Ser, GnRH, hG17(9)-Ser and buffer (no inhibitor). Antibodies, including the rabbit anti-GRP1-Ser (100 μg/ml), affinity purified rabbit anti-DT (negative control, 100 μg/ml), mouse anti-AR42J antiserum (positive control, 1:100 dilution, heat inactivated) or normal mouse serum were added to the appropriate tubes and the contents were mixed. The cells were incubated for 1 hour, with occasional mixing. […] Fluorescence was scored on a scale of 0 to 4, with 0 representing background fluorescence (obtained with the normal mouse serum) and 4 representing maximal fluorescence (obtained with the mouse anti-AR42J positive control antiserum).

[3] = system: affinity purified anti-GRP1 Ab binding to GRP1-Ser-BSA; assay: Inhibition ELISA, specificity of affinity purified anti-GRP1 antibodies; parameters: species or system rabbit; conditions: anti-GRP1 Ab 10 ng/ml; inhibitor 1:10 dilution series
Method: The following experiments were performed to establish the specificity of antibodies raised in rabbits against the GRP1-DT peptide containing Ser spacer described Example 1 using Method B. A series of tests were conducted to assess the specificity of rabbit antibodies induced by immunization with the GRP1-DT and affinity purified by immunoadsorption over a GRP1-Ser Sepharose column.
An inhibition ELISA was used to assess the specificity of the affinity purified antibodies for GRP1-Ser peptide. The assays were run as follows: GRP1-Ser-BSA conjugate was coated onto 96 well plates (Immulon U bottom) by overnight incubation of 50 μl of a 2 μg/ml solution of conjugate in glycine buffer (0.1M, pH=9.5) at 4° C. Affinity purified anti-GRP1 Ab (at a final concentration of 10 ng/ml) was combined with various inhibitors (in 1:10 dilution series) and incubated for 1 hour at room temperature. The inhibitors included GRP1-Ser, GRP1 EPT, Ser, human gastrin 17(1-9)-Ser spacer (hG17(9)-Ser), GRP1 EPT+Ser, and buffer (no inhibitor). Incubation buffer consisted of PBS+0.5% BSA+0.05% Tween 20+0.02% NaN3. Subsequent steps used the same buffer without BSA. The 96 well plates were washed free of nonbound GRP1-Ser-BSA, and the Ab+inhibitor mixtures were added (50 μl/well). After 1 hour, the plates were washed and a goat anti-rabbit Ig (H+L) alkaline phosphatase conjugate (Zymed) was added (1:2000 dilution). […] Following a 60 minute incubation, absorbance was measured on a MRX reader (Dynatech Laboratories). Samples were run in duplicate, and means were calculated for each concentration. Background binding (established with affinity purified rabbit anti-GnRH antibodies) was subtracted from all values, and the % Inhibition relative to no inhibitor added (anti-GRP1 Ab+buffer) was calculated for each inhibitor tested: % Inhibition=(100)(1−((Auninhibited−Ainhibited)/Auninhibited), where A=Absorbance. The results are shown in FIG. 4.

Compound | inhibition of anti-GRP1-Ser antibody binding to AR42J cells [2] | inhibition of antibody binding to GRP1-Ser-BSA [3] | other results
CCCN(CCC)C(=O)C(CCC(=O)O)NC(=O)c1ccccc1 (stereo not drawn) [proglumide] |  |  | survival of xenograft mice bearing MC26 (MC26 mouse colon tumor): 39 days
GnRH: gonadotropin releasing hormone | failed to inhibit |  | inhibition of 125I-hG17 binding to AR42J cells ([1]; 100 pg, considered to be nonspecific): 6%; inhibition of 125I-hG17 binding to AR42J cells ([1]; two highest concentrations tested): no inhibition
KLNRSVQGTGPGPGASL [GRP1 EPT] |  | Approximately 60% | 
SSPPPPC [Ser spacer] |  | No inhibition | 
hG17(9)-Ser: amino-terminal nine residues of hG17 followed by the Ser spacer (QGPWLEEEESSPPPPPC) | failed to inhibit | No inhibition | 
hG17: human G17, heptadecagastrin |  |  | inhibition of 125I-hG17 binding to AR42J cells ([1]; 1 μg per tube, highest concentration tested): 32%
